Our source for the Kd values is patent US20060263354A1 (published 2006).

B1: 2-43-1 (antibody, V domains shown)
VH: EVQLLESGGGLVQPGGSLRLSCAASGFTFSSYAMSWVRQAPGKGLEWVSAISGSGGSTFYADSVTGRFTISRDNSKNTLFLQLNSLRAEDTAVYHCAKDGRFNWNYGASDIWGQGTMVTVSS
VL: EIVMTQSPATLSVSPGERATLSCRTSQSVSSNLAWYQQKPGQAPRLLIYGASTRATGIPARFSGSGSGTEFTLTISSLQSEDFAVYYCQQYNNWPLTFGGGTKVEIKR
B2: 2-177-1 (antibody, V domains shown)
VH: EVQLLESGGGLIQPGGSLRLSCAASGFTFSSFAMSWVRQAPGKGLEWVSTISGSGGSTYYADFVKGRFTISRDNSKNTLYLQMNSLRAEDTAVYYCAKDGRYNWNYGAFDIWGQGTMVTVSS
VL: EIVMTQSPATLSVSPGERATLSCRASQSVRSNLAWFQQKPGQAPRLLIYGASTRATGIPARFSGSGSGTEFTLTISSLQSEDFAVYYCQQYNNWPLTFGGGTKVEIKR
B3: 2-112-1 (antibody, V domains shown)
VH: EVQLLESGGGLIQPGGSLRLSCAASGFTFSSFAMSWVRQAPGKGLEWVSTISGSGGYTFYADSVKGRFTISRDNSKNTLYLQMNSLRAEDTAVYYCAKDGRYNWNYGAFDIWGQGTMVTVSS
VL: EIVMTQSPATLSVSPGERATLSCRASQSVSSNLAWYQQKPGQAPRLLIYGASTRATGFPARFSGSGSGTEFTLTISSLQSEDFAIYYCQQYNNWPLTFGGGTKVEIKR
B4: 1-257-1 (antibody, V domains shown)
VH: EVQLVESGGGLVKPGGSLRLSCAASGFTFSSYSMNWVRQAPGKGLEWVSSISSSSSYIYYADSVKGRFTISRDNAKNSLYLQMNSLRAEDTAVYYCARDRGYYYGMDVWGQGTTVTVSS
VL: DIQMTQSPSSLSASVGDRVTLTCRASQGIRNALGWYQQKPGKAPKRLIYGASSLQSGVPSRFSGSGSGTEFTLTISSLQPEDFATYYCLQHNSYPFTFGPGTKVDIKR
B5: 1-268-1 (antibody, V domains shown)
VH: EVQLVESGGGLVKPGGSLRLSCAASGFTFSSYSMNWVRQAPGKGLEWVSSISSSSSYIYYADSVKGRFTISRDNAKNSLYLQMNSLRAEDTAVYYCARDRGSYFLFDYWGQGTLVTVSS
VL: DMQMTQSPSSLSASVGDRVTITCRASQGIRNDLGWYQQKPGKAPKRLIYGASSLQSGVPSRFSGSGSGTEFTLTISSLQPEDSATYYCLQHNSYPLTFGGGTKVEIKR
B6: 1-136-3 (antibody, V domains shown)
VH: EVQLVESGGGLVKPGGSLRLSCAASGFTFSSYSMNWVRQAPGKGLEWVSSISSSSSYIYYADSVKGRFTISRDNAKNSLYLQMNSLRAEDTAVYYCARDRGYSYGIDYWGQGTLVTVSS
VL: DIQMTQSPSSLSASVGDRVTITCRASQGIRNALGWYQQKPGKAPKRLIYAASSLQSGVPSRFSGSGSGTEFTLTISSLQPEDFATYYCLQHNSYPRTFGQGTKVEIKR
B7: 1-66-1 (antibody, V domains shown)
VH: EVQLVESGGGLVKPGGSLRLSCAASGFTFSSYSMNWVRQAPGKGLEWVSSISSSSSYIYYADSVKGRFTISRDNAKNSLYLQMNSLRAEDTAVYYCARDRGYSYGLDYWGQGTLVTVSS
VL: DIQMTQSPSSLSASVGDRVTITCRASQGIRNDLGWYQQKPGKAPKRLIYAASSLQSGVPSRFSGSGSGTEFTLTISSLQPEDFATYYCLQLNSYPFTFGPGTKVDIKR
B8: 1-116-1 (antibody, V domains shown)
VH: EVQLVESGGGLVKPGGSLRLSCAASGFTFSSYSMNWVRQAPGKGLEWVSSISSSSSYIYYADSVKGRFTISRDNAKNSLYLQMNSLRAEDTAVYYCARDRGYSYGLDYWGQGTLVTVSS
VL: DIQMTQSPSSLSASVGDRVTITCRASQGIRNALGWYQQKPGKAPQRLIYAASSLQSGVPSRFSGSGSGTEFTLTISSLQPEDFATYYCLQHNSYPRTFGQGTKVEIKR
B9: 1-314-1 (antibody, V domains shown)
VH: EVQLVESGGGLVKPGGSLRLSCAASGFTFSSYSMNWVRQAPGKGLEWVSSISSSSSYIYYADSVKGRFTISRDNAKNSLYLQMNSLRAEDTTVYYCARDRGYLYGMDVWGQGTTVTVSS
VL: DIQMTQSPSSLSASVGDRVTITCRASQAIRNDLGWYQQKPGKAPKRLIYAASSLQSGVPSRFSGSGSGTEFTLTISSLQPEDFATYYCLQHNSYPRTFGQGTKVEIKR

Chain of mature GDF8 (O14793 267-375): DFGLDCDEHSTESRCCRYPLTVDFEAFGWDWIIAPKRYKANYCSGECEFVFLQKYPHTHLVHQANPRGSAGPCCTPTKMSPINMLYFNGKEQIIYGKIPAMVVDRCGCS

The assay addresses mature GDF8 (UniProt O14793 267-375). Kind of assay: BIAcore. (In general: In SPR one partner is held on a chip, and binding of the other changes the refractive index at the surface.)
What is called Kd is the equilibrium constant for the complex coming apart. B1 displayed a Kd of 1.5 nM.

B2 gave a Kd of 0.89 nM.

Turning to B3, the affinity, expressed as Kd, was 0.011 nM.

B4 gave a Kd of 0.16 nM.

B5 returned a Kd of 0.24 nM.

B6 gave a Kd of 0.043 nM.

With B7, the affinity, expressed as Kd, was 0.083 nM.

B8 returned a Kd of 0.012 nM.

B9: the Kd was determined as 0.11 nM.
